This sample holds only a part of the variants without activity.
B1: TPR 5TU (parent)
chain: GGAUCUUCUCGAUCUAACAAAAAAGACAAAUCUGCCACAAAGCUUGAGAGCAUCUUCGGAUGCAGAGGCGGCAGCCUUCGGUGGCGCGAUAGCGCCAACGUUCUCAACUAUGACACGCAAAACGCGUGCUCCGUUGAAUGGAGUUUAUCAUG

Variants of: B1
Experiment: polymerase ribozyme fitness, log enrichment relative to wild type (log ratio); higher = more active; in vitro selection for triplet polymerase activity
Method in brief: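 Fitness is a logarithmic measure of how a genotype enriched relative to the wild type, with replicate averages weighted by inverse variance. The logarithm uses base 2, and enrichment came from Illumina sequencing of input and output libraries. Those libraries were PCR-built, transcribed mutants of each subunit of a heterodimeric triplet polymerase ribozyme, passed through one triplicate in vitro selection round that included frozen incubation at −7 °C, gel excision of extended constructs and streptavidin-bead capture. Genotypes were kept only if they had ≥10 input reads and ≥1 read per output.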

| Variant | polymerase ribozyme fitness (log ratio) |
| --- | --- |
| GGAUCUUCUCGAUCUAACAAAAAAGACAAAUCUGCCACAAAGCUUGAGCGCAUCUUCGGAUGCAGAGGCGGCAGCCUUCGGUGGCGCUAUAGCGCCAACGUUCUCUACUAUGACACGCAAAACGCGUGCUCCGUUGAAUGGAGUUUAUCAUG [A49C G88U A106U] | ≤ -4.2 |
| GGAUCUUCUCGAUCUAACAAAAAAGACAAAUCUGCCACAAAGCUUGAGCGCAUCUUCGGAUGCAGAGGCGGCAGCCUUCGUUGGCGCGAUAGGGCCAACGUUCUCAACUAUGACACGCAAAACGCGUGCUCCGUUGAAUGGAGUUUAUCAUG [A49C G81U C93G] | ≤ -4.2 |
| GGAUCUUCUCGAUCUAACAAAAAAGACAAAUCUGCCACAAAGCUUGAGCCCAUCUUCGGAUGCAGAGGCGGCAGCCUUCGGUGGAGCGAUAGCGCCAACGUUUUCGACUAUGACACUCAAAUCGCGUGCUUCGUUGAAGGGAGUUUAUCAUG [A49C G50C C85A C103U A106G G117U A122U C131U U139G] | ≤ -4.2 |
| GGAUCUUCUCGAUCUAACAAAAAAGACAAAUCUGCCACAAAGCUUGAGCGCAUCUUCGGAUGCAGAGGCGGCAGCCUUCGGUCGCGCGACAGCGCCAACGUUCUCAACUAUGACACGCAAAGCGCGUGCUCCGUUGAAUGGAGUUUAUCAUG [A49C G83C U90C A122G] | ≤ -4.2 |
| GGAUCUUCUCGAUCUAACAAAAAAGACAAAUCUGCCACAAAGCUUGAGGGCGUCCUCGGAUGCAGAGGCGGCAGCCUUCGGUGACGCGAUCGCGCCAAGGGUCUCAACUAUGACACGCAAAACGCGUGCUCCGUUGAAUGGAGUUUAUCAUG [A49G A52G U55C G84A A91C C99G U101G] | ≤ -4.2 |
| GGAUCUUCUCGAUCUAACAAAAAAGACAAAUCUGCCACAAAGCUUGAGCGCAUCUUCGGAUGCAGAGGCGGCAGCCUUCGGUGGCGCGAUAGCGCCAACGUUGUCAACUAUGACGCGCAAAACGCGUGCUCCGUUGAAUGGAGUUUAUCAUG [A49C C103G A115G] | ≤ -4.2 |
| GGAUCUUCUCGAUCUAACAAAAAAGACAAAUCUGCCACAAAGCUUGAGCACAUCUUCGUAUGCAGAGGGGGCAGCCUUCGGUGGCGCGAUAGUGCCAAUGUUCUCAACUAGGACACGCAAAACGCGUGCUCCGUUGAAUGGAGUUUAUCUUG [A49C G50A G59U C69G C93U C99U U111G A150U] | ≤ -4.2 |
| GGAUCUUCUCGAUCUAACAAAAAAGACAAAUCUGCCACAAAGCUUGAGCGCAUCUUCGGAUGCAGAGGCGGCAGCCUUCGGUGGCGCGAUAGCGCCAAUGUUCUCAACUAUGACACGCAAAACGCGUGCUCCGUUGAAUGGAGUUUAUCAUG [A49C C99U] | ≤ -4.2 |
| GGAUCUUCUCGAUCUAACAAAAAAGACAAAUCUGCCACAAAGCUUGAGCCCAUCUUCGGAUGCAGAGGCGACAGCCUUCGGUGGCGCGACAGGGCCAACGUUCUCAACUAUGACACUCAAAAGGCGUGCUCCGUUGAAUGGAGUUUAUCAUG [A49C G50C G71A U90C C93G G117U C123G] | ≤ -4.2 |
| GGAUCUUCUCGAUCUAACAAAAAAGACAAAUCUGCCACAAAGCUUGAGCGCAUCUUCGGAUGCAGAGGCGGCAGCCUUCGGUGGCGUGAUAGCGCCAACGUUCUCAACUAUGACACGCAAAACGCGUGCUCCGUUGAAUGGAGUUUAUCAGG [A49C C87U U151G] | ≤ -4.2 |
| GGAUCUUCUCGAUCUAACAAAAAAGACAAAUCUGCCACAAAGCUUGAGCGCAUCUUCGGAUGCAGAGGCGGCAGCCUUCGGAGGUGCAAUAUCGCCAACGUUCUCAACUAUGACACGCAAAACGCGUGCUCCAUUGAAUGUAGUUUAUCAUG [A49C U82A C85U G88A G92U G133A G141U] | ≤ -4.2 |
| GGAUCUUCUCGAUCUAACAAAAAAGACAAAUCUGCCACAAAGCUUGAGCUCAGCUUCGGAUGCAGAGGCGGCAGCCUUCGCUGGCGUGCUAGCGCCAACGUUCUCUACUAUGACACGCAAAACGCGUGCUCCGUUGAAUGGAGUUUAUCCUG [A49C G50U U53G G81C C87U A89C A106U A150C] | ≤ -4.2 |
| GGAUCUUCUCGAUCUAACAAAAAAGACAAAUCUGCCACAAAGCUUGAGCGCAUCUUCGGAUGCAGAGGCGGCAGCCUUCGGUGGCGCGAUAGUGCCAACGUUCUCAACUAUGACACGCAAAACGCGUGCUCCAUUGAAUGGAGUUUAUCAUG [A49C C93U G133A] | ≤ -4.2 |
| GGAUCUUCUCGAUCUAACAAAAAAGACAAAUCUGCCACAAAGCUUGAGCGCAUCUUCCGAUGCAGAGGCGGCAGCCUUCGGUGGCGCGAUAGCGCCAACGUUCUCCACAAUGAAACGCAAAACGCGUGCUCCGUUGAAUGGAGUUUAUCAUG [A49C G58C A106C U109A C114A] | ≤ -4.2 |
| GGAUCUUCUCGAUCUAACAAAAAAGACAAAUCUGCCACAAAGCUUGAGCGCAUUUUCGGAUGCAGAGGAGGCAGCCUUCGGUGGCGCGAUAGCACCAACGUUCUCAACUAUGACACGCAAAACGCGUGCUCCGUUGAAUGGAGUUUAUCACG [A49C C54U C69A G94A U151C] | ≤ -4.2 |
| GGAUCUUCUCGAUCUAACAAAAAAGACAAAUCUGCCACAAAGCUUGAGCCCAUCUUCGGAUGCAGAGGCGGCAGCCUCCGGUGGCGCGAUAGCGCCAACGUUCUCAACUAUGACACGCAAAACGCGUGCUCCGUUGAAUCGAGUUUAUCAUG [A49C G50C U78C G140C] | ≤ -4.2 |
| GGAUCUUCUCGAUCUAACAAAAAAGACAAAUCUGCCACAAAGCUUGAGCCCAUGUUCGGAUGCAGAGGCAGCAGCCUUCGGUGGCGGGGUAGCGCCAACGUUUUCAACUAUGACACGCAAAACGCGUGCUCCGUUGAAUGGAGUUUAUCAUG [A49C G50C C54G G70A C87G A89G C103U] | ≤ -4.2 |
| GGAUCUUCUCGAUCUAACAAAAAAGACAAAUCUGCCACAAAGCUUGAGCGCAUCUUCGGAUGCAGAGGCGGCAGCAUUCGGUGGCGCGAUAGUGCCAACGUUCUCAACUAUGGCACACAAAACGCGUGCUCCGUUGAAUGGAGUUUAUCAUG [A49C C76A C93U A113G G117A] | ≤ -4.2 |
| GGAUCUUCUCGAUCUAACAAAAAAGACAAAUCUGCCACAAAGCUUGAGCGCAUCUUCGGAUGCAGAGGCGGCAGACUUCGGUGGCUCGAUAGCGCCAACGUUCUCAACUAUGACACGCAAAACGCGUGCUCCGUUGAAUGGACUUUAUCAUG [A49C C75A G86U G143C] | -4.19 |

Reference: the RNAGym collection of RNA variant scans (doi:10.1073/pnas.2313332121)
